Test results from paper PMC7838873, “Purification and Characterization of Recombinant Expressed Apple Allergen Mal d 1” (Methods and Protocols, 2020).

What was measured:
[1] = target: recombinant apple allergen Mal d 1 with a C-terminal polyhistidine-tag (apple (Malus domestica)) (UniProt Q9SYW3); assay: SDS-PAGE without added reducing agent + in-gel tryptic digestion with HPLC-MS/MS; purified protein after storage at -20 °C, freeze-thawing or freeze-drying (Tris, phosphate or urea buffer); denatured at 95 °C in SDS Laemmli sample buffer, Coomassie stain, band proportions by Fiji; band of higher molecular weight identified by peptides; dimer survives SDS, probably held by a disulfide bridge
[2] = target: the molecule itself; assay: as above

Molecule	stoichiometry N [1]	stoichiometry N [2]
recombinant apple allergen Mal d 1 with a C-terminal polyhistidine-tag (from UniProt Q9SYW3 1-159) (natural protein)	2	–
recombinant apple allergen Mal d 1 without polyhistidine-tag (natural protein, apple (Malus domestica), UniProt Q9SYW3 1-159, looked up, n = 159 residues used for the CD calculation; pET-28b(+) vector, NcoI/XhoI, insert 485 bp; also called r-Mal d 1; source: E. coli BL21 star (DE3)pLysS, purified (anion-exchange chromatography, TOYOPEARL SuperQ-650S or GigaCap Q-650M)) MGVYTFENEFTSEIPPSRLFKAFVLDADNLIPKIAPQAIKQAEILEGNGGPGTIKKITFGEGSQYGYVKHRIDSIDEASYSYSYTLIEGDALTDTIEKISYETKLVACGSGSTIKSISHYHTKGNIEIKEEHVKAGKEKAHGLFKLIESYLKDHPDAYN	–	2
